Test results taken from publication PMC5348903.

Tests used:
[1] = target: short isoform of BST2, Q10589-2; assay: co-immunoprecipitation (Western blot densitometry); details: HEK293T cells co-transfected with proviral construct and expressor of the short isoform of BST2; parent: 100
BST2 (WT BST2 expressor) = BST2 (WT BST2 expressor) (UniProt Q10589); assay: co-immunoprecipitation (anti-BST2 Ab pull-down, Western blot densitometry); details: HEK293T cells co-transfected with proviral construct and BST2 expressor; parent: 100

Sequence of short isoform of BST2, Q10589-2 (Q10589 13-161): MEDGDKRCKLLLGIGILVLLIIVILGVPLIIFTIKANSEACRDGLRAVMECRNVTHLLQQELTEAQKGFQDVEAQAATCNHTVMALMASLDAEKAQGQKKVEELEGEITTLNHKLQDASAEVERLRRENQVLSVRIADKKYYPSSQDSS

HIV-1 NL4-3 Vpu, wildtype A10L; A14L; A18L
percent of parent (% BST2 binding (relative to WT)) [1]: 12
percent of parent (% BST2 binding (relative to WT)) (BST2 (WT BST2 expressor)): 14

HIV-1 NL4-3 Vpu, wildtype E28A; L33A
percent of parent (% BST2 binding (relative to WT)) [1]: 18
percent of parent (% BST2 binding (relative to WT)) (BST2 (WT BST2 expressor)): 24

HIV-1 NL4-3 Vpu, wildtype E28A; L33A; E59K; L63F
percent of parent (% BST2 binding (relative to WT)) [1]: 31
percent of parent (% BST2 binding (relative to WT)) (BST2 (WT BST2 expressor)): 43

HIV-1 NL4-3 Vpu, wildtype E59K; L63F
percent of parent (% BST2 binding (relative to WT)) [1]: 144
percent of parent (% BST2 binding (relative to WT)) (BST2 (WT BST2 expressor)): 139

HIV-1 NL4-3 Vpu, wildtype S52D; S56D
percent of parent (% BST2 binding (relative to WT)) [1]: 111
percent of parent (% BST2 binding (relative to WT)) (BST2 (WT BST2 expressor)): 130
